# Measurements published in paper PMC10020352.
# Molecular target: Mu-opioid receptor, P35372
# Sequence (P35372 whole entry): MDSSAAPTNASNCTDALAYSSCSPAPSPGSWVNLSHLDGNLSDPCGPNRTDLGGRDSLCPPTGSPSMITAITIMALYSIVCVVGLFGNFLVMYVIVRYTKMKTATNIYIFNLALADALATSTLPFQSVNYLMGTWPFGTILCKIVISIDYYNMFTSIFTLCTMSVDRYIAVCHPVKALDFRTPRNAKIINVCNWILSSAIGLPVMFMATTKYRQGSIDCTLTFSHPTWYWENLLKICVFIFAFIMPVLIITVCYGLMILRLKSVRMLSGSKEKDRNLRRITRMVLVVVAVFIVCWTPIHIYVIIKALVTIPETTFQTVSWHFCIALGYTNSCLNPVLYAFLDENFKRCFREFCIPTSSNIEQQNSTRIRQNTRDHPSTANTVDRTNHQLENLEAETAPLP
binder,measurement,value
YGGFLRR (modifications not checked) [Dyn1-7],"Activity (EC50, nM) for cAMP in MOP receptor over-expressing HEK293 cells",3740 nM
